The record followed here is publication PMC5788503, “Hepatitis B virus core protein allosteric modulators can distort and disrupt intact capsids” (eLife, 2018).

This data set deals with the molecule itself. As to the kind of experiment: negative stain electron microscopy; Cp149 assembly reaction, 50 mM HEPES, 300 mM NaCl, 10 uM dimer, no CpAM.

B1: Hepatitis B virus core protein assembly domain, Cp149 (domain or fragment)
chain: MDIDPYKEFGATVELLSFLPSDFFPSVRDLLDTAAALYRDALESPEHCSPHHTALRQAILCWGDLMTLATWVGTNLEDPASRDLVVSYVNTNVGLKFRQLLWFHISCLTFGRETVLEYLVSFGVWIRTPPAYRPPNAPILSTLPETTVV
notes: Hepatitis B virus subtype adyw core protein (Cp), assembly domain: the first 149 residues of the 183-residue protein; Purified as a homodimer; Dimers were assembled into capsids at 10 uM dimer in 300 mM NaCl, 50 mM HEPES pH 7.5; The apo capsid comparator PDB 1QGT is cited without its construct being named; also called purified dimeric assembly domain; apo-capsids; source: E. coli, purified by …
For the protein B1, the binding result was “binds”.
